In this test the target is T1, human HER2 on tumor cells (MDA-MB-468-HER2++ cells transduced with human HER2; T47D cells) (human, UniProt P04626 23-1255).
T1 construct: whole, on cells; also called ErbB2
In words: flow cytometry sorting of MDA-MB-468-HER2++ cells. A general note: A flow cytometer gives signals particle by particle.

B1: ICR12 rat anti-human HER2 antibody (antibody, V domains shown)
VH: EVQLQESGPGLVKPSQSLSLTCSVTGYSITTDYWGWIRKFPGNKMEWMGYISYSGSTGYNPSLKSRISITRDTSKSQFFLQLNSVTTEDTATYYCARYSSLDYWGRGVMVAVSS
VL: DVVMTQTPPSLSVAIGQSVSISCKSSQSLVYSDGKTYLHWLLQSPGRSPKRLIYQVSNLGSGVPDRFSGTGSQKDFTLKISRVEAEDLGVYYCAQTTHFPLTFGSGTKLEIK
notes: VH and VL stand within it
Take B1: the binding result is “binds”.

(Values after US20220152103A1 (LEUCID BIO, published 2022).)
